In assay [1] the target is T1, human IL6R expressed on cell surface (human, UniProt P08887 20-468).
T1 construct: whole, on cells; also called cell surface human IL6R; U266 cells expressing human IL6R
T1 sequence (looked up): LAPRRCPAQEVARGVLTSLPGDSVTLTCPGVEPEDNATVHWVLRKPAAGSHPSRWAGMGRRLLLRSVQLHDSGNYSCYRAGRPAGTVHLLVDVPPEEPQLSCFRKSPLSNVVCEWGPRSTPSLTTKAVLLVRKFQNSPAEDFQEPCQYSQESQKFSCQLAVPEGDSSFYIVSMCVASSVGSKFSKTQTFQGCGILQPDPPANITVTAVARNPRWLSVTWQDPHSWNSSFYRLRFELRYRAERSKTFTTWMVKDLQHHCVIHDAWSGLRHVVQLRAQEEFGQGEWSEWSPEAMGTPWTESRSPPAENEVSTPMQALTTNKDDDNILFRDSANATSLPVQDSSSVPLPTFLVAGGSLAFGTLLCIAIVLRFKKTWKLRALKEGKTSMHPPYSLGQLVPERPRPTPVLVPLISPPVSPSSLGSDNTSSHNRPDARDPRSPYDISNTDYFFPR
Nature of the assay: cell-based binding FACS on U266 cells. As for the experimental part: The binding activities of the mouse anti-IL6R antibodies to IL6R expressed on cell surface were tested by flow cytometry (FACS). Briefly, human myeloma cells U266 (ATCC® TIB-196™) were harvested from cell culture flasks, washed twice and resuspended in phosphate buffered saline (PBS) containing 2% v/v Fetal Bovine Serum (FACS buffer). 2×10⁵ U266 cells per well were incubated in 96 well-plates with 100 μl of the anti-IL6R antibodies or controls at various concentrations (starting at 40 nM with a 3-fold serial dilution in FACS buffer) for 40 minutes on ice. Cells were washed twice with FACS buffer, and added with 100 μL/well R-Phycoerythrin AffiniPure F(ab′)₂ Fragment Goat Anti-Mouse IgG (H+L) (1:1000 dilution in FACS buffer, Jackson ImmunoResearch Laboratories, Inc., Cat #115-116-146). Following an incubation of 40 minutes at 4° C. in dark, cells were washed three times and resuspended in FACS buffer. Fluorescence was measured using a Becton Dickinson FACS Canto II-HTS equipment. Data was analyzed using Graphpad Prism software and EC₅₀ values were reported.

In assay [2] the target is T2, human IL6R-Fc protein (human, biotin-labeled in the ELISAs (sites not given)).
T2 construct: In house made; also called biotin-labeled human IL6R-Fc protein
Kind of assay: ligand blocking ELISA: antibody pre-incubated with biotin-labeled human IL6R-Fc, added to plate-coated human IL6 (blocked ligand: human IL6). As for the experimental part:
The next day, anti-IL6R antibodies or controls were diluted with biotin labeled human IL6R-Fc protein (prepared in house, SEQ ID NO: 43, 39.5 ng/ml in 2.5% w/v non-fatty milk in PBST), starting at 100 nM with a 4-fold serial dilution, and incubated at room temperature for 40 minutes. […] Plates were washed for 4 times using wash buffer, and added and incubated with 100 μl/well of streptavidin conjugated HRP (1:10000 dilution in PBST buffer, Jackson ImmunoResearch Laboratories, Inc., Cat #016-030-084) for 40 minutes at 37° C. Plates were washed again using wash buffer. Finally, TMB was added and the reaction was stopped using 1M H₂SO₄. The absorbance was read on a microplate reader using dual wavelength mode with 450 nm for TMB and 630 nm as the reference wavelength, and then the OD (450-630) values were plotted against antibody concentration. Data was analyzed using Graphpad Prism software and IC₅₀ values were reported.
Background: An ELISA detects its analyte on a solid surface through an enzyme-linked reagent.

Assay [3] has as its target T2, human IL6R-Fc protein. Kind of assay: benchmark blocking ELISA: antibody pre-incubated with biotin-labeled human IL6R-Fc, added to plate-coated Tocilizumab (competitor: Tocilizumab). The procedure:
ELISA plates were washed once with wash buffer (PBS+0.05% v/v Tween-20, PBST) and then blocked with 200 μl/well blocking buffer (5% w/v non-fatty milk in PBST) overnight at 4° C.
The next day, the anti-IL6R antibodies of the disclosure or controls were diluted with biotin labeled human IL6R-Fc protein (SEQ ID NO: 43, 13.6 ng/ml in 2.5% w/v non-fatty milk in PBST), starting at 100 nM with a 5-fold serial dilution, and incubated at room temperature for 40 minutes. […] After incubation at 37° C. for 40 minutes, plates were washed 4 times using wash buffer. Then streptavidin conjugated HRP was added, and the plates were incubated for 40 minutes at 37° C. The plates were finally washed using wash buffer, and added with TMB. The reaction was stopped using 1M […], and the absorbance was read on a microplate reader using dual wavelength mode with 450 nm for TMB and 630 nm as the reference wavelength. The OD (450-630) values were plotted against antibody concentration. Data was analyzed using Graphpad Prism software and IC₅₀ values were reported.

The target of another assay is T3, macaca IL6R-his protein (macaca mulatta).
T3 chain: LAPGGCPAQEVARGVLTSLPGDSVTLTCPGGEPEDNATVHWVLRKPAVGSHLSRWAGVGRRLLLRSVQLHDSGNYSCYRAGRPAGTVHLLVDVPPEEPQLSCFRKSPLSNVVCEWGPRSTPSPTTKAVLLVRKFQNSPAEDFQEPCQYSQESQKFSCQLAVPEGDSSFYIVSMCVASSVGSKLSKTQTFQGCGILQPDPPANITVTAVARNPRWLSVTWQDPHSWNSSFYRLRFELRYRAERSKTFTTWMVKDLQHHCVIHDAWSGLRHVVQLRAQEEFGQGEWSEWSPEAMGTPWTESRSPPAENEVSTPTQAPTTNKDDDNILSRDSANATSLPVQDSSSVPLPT
Kind of assay: SPR Biacore; purified antibody captured by anti-human IgG on CM5, antigen in flow. (SPR reads the build-up and loss of mass on a sensor chip optically.)

The target of assay [4] is T4, recombinant human IL6R-his (human, UniProt P08887 20-365).
T4 construct: In house made; the entry includes the C-terminal His tag; also called human IL6R-his protein
T4 sequence: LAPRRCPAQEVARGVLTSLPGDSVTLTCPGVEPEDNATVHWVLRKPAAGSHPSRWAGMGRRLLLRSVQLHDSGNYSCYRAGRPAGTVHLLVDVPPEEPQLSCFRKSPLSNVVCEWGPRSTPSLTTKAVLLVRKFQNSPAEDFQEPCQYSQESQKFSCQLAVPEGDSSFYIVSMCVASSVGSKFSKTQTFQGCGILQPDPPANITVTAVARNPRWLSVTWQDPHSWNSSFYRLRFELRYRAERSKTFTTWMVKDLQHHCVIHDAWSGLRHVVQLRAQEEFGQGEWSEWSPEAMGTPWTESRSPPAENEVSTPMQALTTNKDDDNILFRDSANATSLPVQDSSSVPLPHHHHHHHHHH
The description is as above.

This note sets out measurements from patent US20230167182A1 (BIOSION, published 2023).

B1: mouse anti-IL6R monoclonal antibody 1F7 (antibody, V domains shown)
VH: QVQLQQPGAELVKPGASVKLSCKASDYTFTSYWMHWVKQRPGQGLEWIGEINPSNGRTNYNEKFKNKATLTVDKSSSTAYVQLYSLTSEDSAVYYCARLSIHYVFDYWGQGTTLTVSS
VL: ELVLTQSPTTMAASPGEKITFTCSASSSISSNYLHWYQQKPGFSPKLLISGTSNLASGVPPRFSGSGSGTSYSLTIVTMEAEDVATYYCQQGSGIPFTFGSGTKLEIK
notes: Mouse hybridoma mAb
As a reminder, the EC50 is the concentration at which the effect is half-maximal. The term IC50 denotes the concentration that inhibits the measured activity by half. Higher therefore signals weaker potency. B1 gave a half-maximal effective concentration (EC50) in assay [1] of 0.304 nM. The IC50 in the assay with human IL6R-Fc protein [2] came to 0.617 nM.

B2: mouse anti-IL6R monoclonal antibody 1H7 (antibody, V domains shown)
VH: QVQLQQPGTELVKPGASVKLSCKASGYTFTNYWMHWVKQRPGQGLDWIGEINPTNGRTNYNENFKSKATLTVDKSSSTAYMQLSSLTSEDSAVYYCARLNTHYVFDSWGQGTTLTLSS
VL: EIVLTQSPTTLAASPGEKITFTCSVSSSISSNYLHWYQQKPGFSPKLLISRTSTLASGVPARFSGSGSGTSYSLTIGTMEAEDVATYYCQQGSGIPFTFGSGTKLELK
notes: Mouse hybridoma mAb
In assay [1], B2 had a half-maximal effective concentration (EC50) of 0.246 nM. The half-maximal inhibitory concentration (IC50) with human IL6R-Fc protein [3] is 0.105 nM.

B3: mouse anti-IL6R monoclonal antibody 1D4 (antibody, V domains shown)
VH: QVQLQQPGAELVKPGASVKLSCKASGYTFTSYWMHWVKVRPGQGLEWIGEINPTNGRTNYNEDFKSKATLTVNSSSSTAYMQLSSLTSEDSAVYYCARLNTHYVFDYWGQGTTLTVSS
VL: EIVLTQSPTILAASPGEKITFTCSVSSSISSNYLHWYQQKPGFSPKLLIYRTSNLASGVPARFSGSGSGTSYSLTIGTMEAEDVATYYCQQGSGIPFTFGSGTKLEIK
notes: Mouse hybridoma mAb
In assay [1], B3 came in with an EC50 of 0.274 nM. Besides, half-maximal inhibition with human IL6R-Fc protein [2] (IC50) was put at 0.957 nM.

B4: Chimeric 1H7 (antibody, human IgG1, kappa, V domains shown)
VH: QVQLQQPGTELVKPGASVKLSCKASGYTFTNYWMHWVKQRPGQGLDWIGEINPTNGRTNYNENFKSKATLTVDKSSSTAYMQLSSLTSEDSAVYYCARLNTHYVFDSWGQGTTLTLSS
VL: EIVLTQSPTTLAASPGEKITFTCSVSSSISSNYLHWYQQKPGFSPKLLISRTSTLASGVPARFSGSGSGTSYSLTIGTMEAEDVATYYCQQGSGIPFTFGSGTKLELKR
notes: Mouse variable regions on human IgG1 / human kappa constant regions; also called chimeric antibody 1H7
In general, Kd refers to the constant that tells how readily two partners part at equilibrium. As usually defined, the koff is the rate constant with which the complex falls apart. Usually kon stands for the rate constant with which the complex forms. In the assay with macaca IL6R-his protein, B4 came in with an equilibrium dissociation constant (Kd) of 1.18 nM, a dissociation rate constant (koff) of 0.000112 s⁻¹ and a kon of 94800 M⁻¹ s⁻¹. In assay [4], the Kd worked out at 0.85 nM, the koff worked out at 0.000112 s⁻¹ and the on-rate constant (kon) is 132000 M⁻¹ s⁻¹.

B5: Tocilizumab (antibody, human IgG1, kappa, V domains shown)
VH: QVQLQESGPGLVRPSQTLSLTCTVSGYSITSDHAWSWVRQPPGRGLEWIGYISYSGITTYNPSLKSRVTMLRDTSKNQFSLRLSSVTAADTAVYYCARSLARTTAMDYWGQGSLVTVSS
VL: DIQMTQSPSSLSASVGDRVTITCRASQDISSYLNWYQQKPGKAPKLLIYYTSRLHSGVPSRFSGSGSGTDFTFTISSLQPEDIATYYCQQGNTLPYTFGQGTKVEIKR
notes: In house made; also called benchmark; Actemra
B5 returned an EC50 in assay [1] of 1.64 nM. Further, the Kd with macaca IL6R-his protein came to 9.16 nM; in assay [4] it was 7.42 nM. Moreover, the half-maximal inhibitory concentration (IC50) came out at 2.3 nM in the assay with human IL6R-Fc protein [2] and 1.58 nM with human IL6R-Fc protein [3].

B6: mouse anti-IL6R monoclonal antibody 1H9 (antibody, V domains shown)
VH: QVQLQQPGAELVKPGASVKLSCKASGYTFTSYWMHWVKLRPGQGLEWIGEINPTNGRTNYYEKFKNRATLTADKSSSTAYMQLSSLTFEDSAVYFCAKFHYSRWYFDVWGTGTTVTVSS
VL: DIVMTQSQKFMSTSVGDRVSITCKASQNVGTAVVWYQQKPGQSPKLLINPASNRYTGVPDRFTGSGSGTDFTLTISNMQSEDLADYFCQQYSSYPLTFGAGTKLELK
notes: Mouse hybridoma mAb
On to B6, for which a half-maximal response in assay [1] (EC50) required 0.391 nM. This molecule also came in with an IC50 with human IL6R-Fc protein [3] of 0.323 nM.

B7: humanized antibody hu1H7-V5 (antibody, human IgG1, kappa, V domains shown)
VH: QVQLVQSGAEVKKPGASVKVSCKASGYTFTNYWMHWVRQAPGQGLEWIGEINPTNGRTNYNENFKSRVTLTVDTSTSTVYMELSSLRSEDTAVYYCARLNTHYVFDSWGQGTLVTVSS
VL: EIVLTQSPGTLSLSPGERATLSCSVSSSISSNYLHWYQQKPGLSPRLLISRTSTLASGIPARFSGSGSGTEYTLTISRMQSEDFAVYYCQQGSGIPFTFGQGTKLEIKR
notes: Human IgG1 / kappa
In the assay with macaca IL6R-his protein, B7 came in with a Kd of 1.58 nM, an off-rate constant (koff) of 0.00012 s⁻¹ and a kon of 75800 M⁻¹ s⁻¹. Moreover, in assay [4], the Kd stood at 0.773 nM, the koff is 0.000112 s⁻¹ and the on-rate (kon) was 145000 M⁻¹ s⁻¹.
